What was measured:
[1] = molecular target: T1, Native porcine OXM, P01274
T1 chain: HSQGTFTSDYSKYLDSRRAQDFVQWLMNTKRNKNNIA

OXM2 = molecular target: T2, OXM2 (not fully specified)
T2 chain: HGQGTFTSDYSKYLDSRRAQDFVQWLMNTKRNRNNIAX

B1: recombinant soluble human DP-IV (protein)
chain: SRKTYTLTDYLKNTYRLKLYSLRWISDHEYLYKQENNILVFNAEYGNSSVFLENSTFDEFGHSINDYSISPDGQFILLEYNYVKQWRHSYTASYDIYDLNKRQLITEERIPNNTQWVTWSPVGHKLAYVWNNDIYVKIEPNLPSYRITWTGKEDIIYNGITDWVYEEEVFSAYSALWWSPNGTFLAYAQFNDTEVPLIEYSFYSDESLQYPKTVRVPYPKAGAVNPTVKFFVVNTDSLSSVTNATSIQITAPASMLIGDHYLCDVTWATQERISLQWLRRIQNYSVMDICDYDESSGRWNCLVARQHIEMSTTGWVGRFRPSEPHFTLDGNSFYKIISNEEGYRHICYFQIDKKDCTFITKGTWEVIGIEALTSDYLYYISNEYKGMPGGRNLYKIQLSDYTKVTCLSCELNPERCQYYSVSFSKEAKYYQLRCSGPGLPLYTLHSSVNDKGLRVLEDNSALDKMLQNVQMPSKKLDFIILNETKFWYQMILPPHFDKSKKYPLLLDVYAGPCSQKADTVFRLNWATYLASTENIIVASFDGRGSGYQGDKIMHAINRRLGTFEVEDQIEAARQFSKMGFVDNKRIAIWGWSYGGYVTSMVLGSGSGVFKCGIAVAPVSRWEYYDSVYTERYMGLPTPEDNLDHYRNSTVMSRAENFKQVEYLLIHGTADDNVHFQQSAQISKALVDVGVDFQAMWYTDEDHGIASSTAHQHIYTHMSHFIKQCFSLP
- loss of potency at hGLP-1R (cAMP HTRF) after preincubation with DP-IV [1]: loss of potency due to preincubation of the peptides with DP-IV
- loss of potency at hGLP-1R (cAMP HTRF) after preincubation with DP-IV (OXM2): loss of potency due to preincubation of the peptides with DP-IV

Reference: patent US20100144617
